In publication PMC8160579 (The Journal of Cell Biology, 2021):
Where no end group is shown, it is not given here.

B1: Myc-SAMM50 WT, in vitro translated (natural protein)
chain: MGTVHARSLEPLPSSGPDFGGLGEEAEFVEVEPEAKQEILENKDVVVQHVHFDGLGRTKDDIIICEIGDVFKAKNLIEVMRKSHEAREKLLRLGIFRQVDVLIDTCQGDDALPNGLDVTFEVTELRRLTGSYNTMVGNNEGSMVLGLKLPNLLGRAEKVTFQFSYGTKETSYGLSFFKPRPGNFERNFSVNLYKVTGQFPWSSLRETDRGMSAEYSFPIWKTSHTVKWEGVWRELGCLSRTASFAVRKESGHSLKSSLSHAMVIDSRNSSILPRRGALLKVNQELAGYTGGDVSFIKEDFELQLNKQLIFDSVFSASFWGGMLVPIGDKPSSIADRFYLGGPTSIRGFSMHSIGPQSEGDYLGGEAYWAGGLHLYTPLPFRPGQGGFGELFRTHFFLNAGNLCNLNYGEGPKAHIRKLAECIRWSYGAGIVLRLGNIARLELNYCVPMGVQTGDRICDGVQFGAGIRFL
B2: biotinylated SAMM50 LIR peptide (residues 18–41) (peptide)
peptide: DFGGLGEEAEFVEVEPEAKQEILE
modifications: also: biotinylated, position not given here
B3: GABARAP Q59E (natural protein)
chain: MKFVYKEEHPFEKRRSEGEKIRKKYPDRVPVIVEKAPKARIGDLDKKKYLVPSDLTVGEFYFLIRKRIHLRAEDALFFFVNNVIPPTSATMGQLYQEHHEEDFFLYIAYSDESVYGL

What was measured:
[1] = target: GST-GABARAP Y49A (human, UniProt O95166 1-117, Y49A); assay: pull-down
[2] = target: GABARAPL1, purified (human, UniProt Q9H0R8 1-117); assay: BLI
[3] = target: GABARAP, purified (human, UniProt O95166 1-117); assay: BLI
[4] = target: LC3A, purified (human, UniProt Q9H492 1-121); assay: BLI
[5] = target: LC3C, purified (human, UniProt Q9BXW4 1-126); assay: BLI
[6] = target: B2; assay: BLI

Sequence of GABARAPL1, purified (Q9H0R8 whole entry): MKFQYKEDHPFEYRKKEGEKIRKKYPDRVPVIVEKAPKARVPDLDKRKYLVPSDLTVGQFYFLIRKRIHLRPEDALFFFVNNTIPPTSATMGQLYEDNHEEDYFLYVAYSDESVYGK
Sequence of LC3C, purified (Q9BXW4 1-126): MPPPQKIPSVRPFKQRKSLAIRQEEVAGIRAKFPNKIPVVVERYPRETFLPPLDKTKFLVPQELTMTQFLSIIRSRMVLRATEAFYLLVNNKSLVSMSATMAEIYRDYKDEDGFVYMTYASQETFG
Sequence of GABARAP, purified (O95166 whole entry): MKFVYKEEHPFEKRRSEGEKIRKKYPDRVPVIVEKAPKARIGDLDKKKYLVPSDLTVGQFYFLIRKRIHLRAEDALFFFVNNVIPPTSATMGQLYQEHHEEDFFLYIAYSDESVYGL

Binder: B1
- reduction in binding relative to WT GABARAP [1]: > 60%

Binder: B2
- Kd [2]: 10 µM
- Kd [3]: 23.9 µM
- Kd [4]: 27.6 µM
- Kd [5]: 57.2 µM

Binder: B3
- fold reduction of binding relative to WT GABARAP [6]: > 3.5 fold
